Measurements as given in the nanobody polyreactivity screen of Harvey et al. (2022).

Test: yeast display, Sf9 membrane polyspecificity reagent, FACS + sequencing; frameworks hold sequencing errors
In short: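 Nanobodies from a synthetic yeast display library (Saccharomyces cerevisiae BJ5465), induced 36–48 hours with galactose, were stained 1 hour at 4 °C with 10% biotinylated, detergent-solubilized Sf9 membrane reagent, enriched on streptavidin microbeads, then FACS-sorted. Anti-HA (expression) and streptavidin (reagent binding) fluorescence set low and high (top ~1%) gates. Polyreactivity labels come from the gate of origin. Genes were colony-PCR amplified, MiSeq 2 × 250 sequenced and filtered by CDR length.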

Sequence | polyreactivity (PSR sort gate)
QVQLVESGGGLVQAGGSLRLSCAASGRTFSQYAMGWYRQAPGKERELVAAITSAGSTYYADSVKGRFTISRDNAKNTVYLQMKSLKPEDTAVYYCNARGPSRYTGYSSYYWGQGTQVTVSS | high polyreactivity
QVQLVESGGGLVQAGGSLRLSCAASGRTFSQYAMGWYRQPPGKERELVASISWSGGSTYYADSVKGRFTISRDNAKNTVYLQMNSLKPEDTAVYYCAAVGKGSARSSYPVLYDYWGQGTQVTVSS | low polyreactivity
QVQLVESGGGLVQAGGSLRLSCAASGRTFSRNAMGWYRQAPGKERELVAAISWSGARTYYADSVKGRFTISRDNAKNTVYLQMNSLKPEDTAVYYCAARVPSWKYDYWGQGTQVTVSS | high polyreactivity
QVQLVESGGGLVQAGGSLRLSCAASGRTFSRYAMGWYRQAPGKERELVAAITWSGGDTYYADSVKGRFTISRDNAKNTVYLQMNSLKPEDTAVYYCAAEWGTVGYIRYYAIWSEYDYWGQGTQVTVSS | low polyreactivity
QVQLVESGGGLVQAGGSLRLSCAASGRTFSRYAMGWYRQAPGKERELVATISSSGGTTYYADSVKGRFTISRDNAKNTVYLQLNSLKPEDTAVSYCNSEYKIRTHASGFDYWGQGTQVTVSS | low polyreactivity
QVQLVESGGGLVQAGGSLRLSCAASGRTFSRYTMGWYRQAPGKEREFVAAISVNGGTTHYADSVKGRFTISRDNAKNTVYLQMNSLKPEDTAVYYCAARNYLARRYGYWGQGTQVTVSS | high polyreactivity
QVQLVESGGGLVQAGGSLRLSCAASGRTFSSNAMGWYRQAPGKERELVASISFRGGRTYYADSVKGRFTISRDNAKNTVYLQMYSLKPEDTAVYYCVSGTKRTGYGYWGQGTQVTVSS | high polyreactivity
QVQLVESGGGLVQAGGSLRLSCAASGRTFSSYAKGWYRQAPGKERELVAAITSGGSTYYADSVKGRFTISRDNAKNTVYLQMNSLKPDDTAVYYCAAEQHGYYWHSWNRYIFYYWGQGTQVTVSS | high polyreactivity
QVQLVESGGGLVQAGGSLRLSCAASGRTFSSYAMGWYRQAPGKEREFVAAISRSGASTRYADSVKGRFTISRDNAKNTVYLQMNSLKPEDTAVYYCAAVWPDVRGYDYWGQGTQVTVSS | high polyreactivity
QVQLVESGGGLVQAGGSLRLSCAASGRTFSSYAMGWYRQAPGKERELVAAIDSGGNTYADSVKGRFTISRDNAKNTVYLQMNSLKPEDTAVYYCAVDGGEFSSYGYWGQGTQVTVSS | low polyreactivity
QVQLVESGGGLVQAGGSLRLSCAASGRTFSSYAMGWYRQAPGKERELVAAINWSGASTYYADSVKGRFTISRDNAKNTVYLQMNSLKPEDTAVYYCAKSLYVGKYWQIRSSVDYWGQGTQVTVSS | low polyreactivity
QVQLVESGGGLVQAGGSLRLSCAASGRTFSTNAMGWYRQAPGKERELVAAITASGGSTYYADSVKGRFTISRDNAKNTVYLQMNSLKPEDTAVYYCAKRYRAYHYGWWYDYWGQGTQVTVSS | high polyreactivity
QVQLVESGGGLVQAGGSLRLSCAASGRTFSTYAMGWYRQAPGKERELVAAISTSGSRTYYADSVKGRFTISRDNAKNTVYFQMNSLKPEDTAVYYCAATPLYYRYYVWQYDYWGQGTQVTVSS | high polyreactivity
QVQLVESGGGLVQAGGSLRLSCAASGRTFSTYAMGWYRQAPGKERELVAAITTSGGNTYYADSVKGRFTISRDNAKNTVYLQMNSLKPEDTAVYYCNAKQQPYGGTDYDYWGQGTQVTVSS | low polyreactivity
QVQLVESGGGLVQAGGSLRLSCAASGRTFSVNAMGWYRPAPGKERELVAAISWDGGSTYYADSVKGRFTISRDNAKNTVYLQMNSLKPEDTAVYYCNKDLYYAYDYWGQGTQVTVSS | low polyreactivity
QVQLVESGGGLVQAGGSLRLSCAASGRTFSVNVMGWYRQAPGKERELVAAISWSGGNTYYADSVKGRFTISRDNAKNTVYLQMNSLKPEDTAVYYCNTDFADSNYDSSYGYWGQGTQVTVSS | low polyreactivity
QVQLVESGGGLVQAGGSLRLSCAASGRTFSVYAMGWYRQAPGKERELVAAISGRGGRTYYADSVKGRFTISRDNAKNTVYLQMNSLKPEDTAVYYCTADVGVYHDDYWGQGTQVTVSS | high polyreactivity
QVQLVESGGGLVQAGGSLRLSCAASGRTFSVYAMGWYRQAPGKESELVAGITGNGGSTYYADSVKGRFTISRDNAKNTVYLQMNSLKPEDTAVYYCATAYWDIITRGEYGYWGQGTQVTVSS | low polyreactivity
QVQLVESGGGLVQAGGSLRLSCAASGRTFSVYVMGWYRQAPGKERELVAAISSSGGRTYYADSVKGRFTISRDNAKNTVYLQMNSLKPEDTAVYYCAAETIVFYVEYNYWGQGTQVTVSS | low polyreactivity
QVQLVESGGGLVQAGGSLRLSCAASGRTFSWNAMGWYRQAPGKERELVAAISNSGGSTYYADSVKGRFTISRDNAKNTVYLQMNSLKPEDTAVYYCAVYRYYGFSLWYDYWGQGTQVTVSS | low polyreactivity
QVQLVESGGGLVQAGGSLRLSCAASGRTFSWYAMGWYRQAPGKERELVAAISSSGGSTYYADSVKGRFTISRDNAKNTVYLQMNSLKPEDTAVYYCAVRYYSSLSQRYYSWGQGTQVTVSS | high polyreactivity
QVQLVESGGGLVQAGGSLRLSCAASGRTFSWYVMGLYRQAPGKERELVASISGSGGSTYYADSVKGRFTISRDNAKNTVYLQMNSLKPEDTAVYYCARDYFFRSRSDYWGQGTQVTVSS | high polyreactivity

Sequence | polyreactivity (PSR sort gate)
QVQLVESGGGLVQAGGSLRLSCAASGRTFSWYVMGWSRQAPGKERALVAAISWNGGRTYYADSVKGRFTISRDNAKNTVYLQMNRLKPEDTAVYYCATGPDPKYDYWGQGTQVTVSS | high polyreactivity
QVQLVESGGGLVQAGGSLRLSCAASGRTFSYNAIGWYRQAPGKERTNYADSVKGRFTISRDNAKNTVYLQMNSLKPEDTAVYYCAVEPYLSYPPTSIDNDYDYWGQGTQVTVSS | low polyreactivity
QVQLVESGGGLVQAGGSLRLSCAASGRTFSYNTMGWYRQAPGKERELVAAIDSDGSTNYADSVKGRFTISRDNAKNTVYLQMNSLKPEDTAVYYCAADRFQCGFWWLEYWGQGTQVTVSS | high polyreactivity
QVQLVESGGGLVQAGGSLRLSCAASGRTFSYYAMGWYRPAPGKEREFVAAISSTGTSTYYADSVKGRFTISRDNAKNTVYLQMNSLKPEDTAVYYCNARVATYRLHSKFYYWGQGTQVTVSS | high polyreactivity
QVQLVESGGGLVQAGGSLRLSCAASGRTFSYYAMGWYRQAPGKERELGAANSGGGRTNYADSVKGRFTISRDNAKNTVYLQMNSLKPEDTAVYYCAAGASRKYQYYSRSYDYWGQGTQVTVSS | high polyreactivity
QVQLVESGGGLVQAGGSLRLSCAASGRTFSYYAMGWYRQAPGKERELVARITYRGGRTYYADSVKGRFTISRDNAKNTVYLQMNSLKPEDTAVYYCATTSWRYGYDYWGQGSQVTVSS | high polyreactivity
QVQLVESGGGLVQAGGSLRLSCAASGRTFSYYTLGWYRQAPGKERELVARISNRGTNTYYADSVKGRFTISRDNAKNTVYLQMNSLKPEDTAVYYCAAYTPPVYWLTRAIRGYYWGQGTQVTVSS | low polyreactivity
QVQLVESGGGLVQAGGSLRLSCAASGRTFSYYTMGWYRQAPGKERQLVARISNRGTNTYYADSVKGRFTISRDNAKNTVYLQMNSLKPEDTAVYYCAKYYYTSIVGYDSWGQGTQVTVSS | low polyreactivity
QVQLVESGGGLVQAGGSLRLSCAASGRTFTFYAMGWYRQAPGKERELVATISYSGGRTYYADSVKGRFTISRDNAKNTVYLQMNSLKPEDTAVYYCATSVSGPWWKLYYWGQGTQVTVSS | low polyreactivity
QVQLVESGGGLVQAGGSLRLSCAASGRTFTGNAMGWYRQAPGKERELVAAISTSGTRTSYADSVKGRFTISRDNAKNTVYLQMNSLKPEDTAVYYCAALRKSLYRTYTYDYWGQGTQVTVSS | high polyreactivity
QVQLVESGGGLVQAGGSLRLSCAASGRTFTGNAMGWYRQAPGKVRELVADINLSGGDTYYADSVKGRFTISRDNAKNTVYLQMNSLKPEDTAVYYCAADIVYSSDYGPGDYWGQGTQVTVSS | high polyreactivity
QVQLVESGGGLVQAGGSLRLSCAASGRTFTGYAMGWYRQAPGKERELVAAITSNGARTYYADSVKGRFTISRDNAKNTVYLQMNSLKPEDTAVYYCNRVRVYTHTAWGDDYWGQGTQVTVSS | low polyreactivity
QVQLVESGGGLVQAGGSLRLSCAASGRTFTGYAMGWYRQAPGKERELVAGISRRGGSTNYADSVKGRFTISRDNSKNTVYLQMNSLKQEDPAVYYCKKRYSLWDEDYWGQGTQVTVSS | high polyreactivity
QVQLVESGGGLVQAGGSLRLSCAASGRTFTHYAMGWYRQAPGKERELVAAISRSGGTTYYADSVKGRFTISRDNAKNTVYLQMNSLKPEDTAVYYCAARWWYRYNYDYWGQGTQVTVSS | high polyreactivity
QVQLVESGGGLVQAGGSLRLSCAASGRTFTINAMGWYRQAPGKERELVATISYSGGSTRYADSVKGRFTISRDNAKNTVYLQMNSLQPDDTAVYYCAADAGYYGRWYGHGYGYWGQGTQVTVSS | high polyreactivity
QVQLVESGGGLVQAGGSLRLSCAASGRTFTKYAMGWYRQAPGKERELVAAISNSGGSTFYADSVKGRFTISRDNAKNTVYLQMNSLKPEDTAVYYCAVDLGDTQYVPFDYWGQGTQVTVSS | low polyreactivity
QVQLVESGGGLVQAGGSLRLSCAASGRTFTLYTMGWYRQAPGKERELVAAIRYSGGSTYYADSVKGRFTISRDNAKNTVYLHMNSLKPEDTAVYYCAARSYYYGFLYRYDYWGQGTQVTVSS | low polyreactivity
QVQLVESGGGLVQAGGSLRLSCAASGRTFTNYAMGWYRQAPGKERELVAAAITVGGGRTYYADSVKGRFTISRDNAKNTVYLQMNSLKPEDTAVYYCATDFGTYWYEYWGQGTQVTVSS | high polyreactivity
QVQLVESGGGLVQAGGSLRLSCAASGRTFTRNAMGWYRQAPGKERELVAVITSSGRTNYADSVKGRFTISRDNAKKTVYLQMNSLKPEDTAVYYCNKVSARYPYPLYDYWGQGTQVTVSS | high polyreactivity
QVQLVESGGGLVQAGGSLRLSCAASGRTFTRNAMGWYRQAPGKERELVAVITSSGRTNYADSVKGRFTISRDNAKNTVYLQMNSLKPEDTAVYYCNKVSARYPYPLYDYWGQGTQVTVSS | high polyreactivity
QVQLVESGGGLVQAGGSLRLSCAASGRTFTRYAMGLYRQAPGKERELVAGITGRAGSTYYADSVKGRFTISRDNAKNTVYLQMNSLKPEDTAVYYCAADAGYRRSSLYEYDYWGHGTQVTVSS | low polyreactivity
